Source: US20160002311A1 (Novo Nordisk, published 2016)
Read-outs that look alike come from different tables or passages of the source. Numbered stars: 1 amine (or outer) side, 2 acyl side, 3 side chain; on linkers, the order of the positions; unused ones are H or OH. Square brackets hold non-standard residues; d marks the D form. Side chains are listed from the residue outwards. Ends that are not written are not given here. * marks the point of attachment. C18 diacid = O=C(O)CCCCCCCCCCCCCCCCC(=O)*; γGlu = O=C(O)[C@H](CCC(=O)[*:2])N[*:1]; Orn = NCCC[C@H](N)C(=O)O; AEEA = NCCOCCOCC(=O)O

B1: N^ε24-([2-[2-[2-[[2-[2-[2-[[(4S)-5-hydroxy-4-[(18-hydroxy-18-oxooctadecanoyl)amino]-5-oxopentanoyl]amino]ethoxy]ethoxy]acetyl]amino]ethoxy]ethoxy]acetyl])[D-Ser … (peptide)
peptide: H[dS]QGTFTSDYSKYLDEQAARDFVK([AEEA-AEEA-γGlu-C18 diacid])WLLNT-NH2
modifications: N-terminus assumed
SMILES: CC(C)C[C@H](NC(=O)[C@H](Cc1ccc(O)cc1)NC(=O)[C@H](CCCCN)NC(=O)[C@H](CO)NC(=O)[C@H](Cc1ccc(O)cc1)NC(=O)[C@H](CC(=O)O)NC(=O)[C@H](CO)NC(=O)[C@@H](NC(=O)[C@H](Cc1ccccc1)NC(=O)[C@@H](NC(=O)CNC(=O)[C@H](CCC(N)=O)NC(=O)[C@@H](CO)NC(=O)[C@@H](N)Cc1c[nH]cn1)[C@@H](C)O)[C@@H](C)O)C(=O)N[C@@H](CC(=O)O)C(=O)N[C@@H](CCC(=O)O)C(=O)N[C@@H](CCC(N)=O)C(=O)N[C@@H](C)C(=O)N[C@@H](C)C(=O)N[C@@H](CCCNC(=N)N)C(=O)N[C@@H](CC(=O)O)C(=O)N[C@@H](Cc1ccccc1)C(=O)N[C@H](C(=O)N[C@@H](CCCCNC(=O)COCCOCCNC(=O)COCCOCCNC(=O)CC[C@H](NC(=O)CCCCCCCCCCCCCCCCC(=O)O)C(=O)O)C(=O)N[C@@H](Cc1c[nH]c2ccccc12)C(=O)N[C@@H](CC(C)C)C(=O)N[C@@H](CC(C)C)C(=O)N[C@@H](CC(N)=O)C(=O)N[C@H](C(N)=O)[C@@H](C)O)C(C)C

Assays:
glucagon receptor [1] = biological target: T1, glucagon receptor (UniProt P47871 26-477, limits assumed); experiment: cell-based or functional assay
glucagon receptor [2] = biological target: T1, glucagon receptor; experiment: cell-based or functional assay; remark: listed apart in the source

T1 sequence (P47871 26-477 limits assumed): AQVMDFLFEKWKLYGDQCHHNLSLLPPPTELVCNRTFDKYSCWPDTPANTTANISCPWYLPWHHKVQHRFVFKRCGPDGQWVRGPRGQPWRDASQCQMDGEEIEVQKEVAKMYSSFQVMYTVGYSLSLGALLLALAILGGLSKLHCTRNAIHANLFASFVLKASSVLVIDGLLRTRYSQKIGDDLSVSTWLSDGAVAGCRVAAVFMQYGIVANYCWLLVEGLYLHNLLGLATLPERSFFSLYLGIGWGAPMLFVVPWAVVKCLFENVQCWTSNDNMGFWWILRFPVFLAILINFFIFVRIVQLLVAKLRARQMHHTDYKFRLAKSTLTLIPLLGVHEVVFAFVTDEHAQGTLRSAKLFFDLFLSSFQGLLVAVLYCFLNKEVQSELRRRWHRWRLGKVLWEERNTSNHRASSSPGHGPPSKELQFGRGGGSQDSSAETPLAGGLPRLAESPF

| Binder | Assay (I) Glucagon [EC50] (glucagon receptor [1]) | Assay (I) Glucagon [EC50] (glucagon receptor [2]) |
| --- | --- | --- |
| B1 | 0.137 nM | – |
| HSQGTFTSDYSKYLDSKKAQEFV[Orn]([AEEA-AEEA-γGlu-C18 diacid])WLLST | – | 0.036 nM |
| HSQGTFTSDYSKYLDSKKAQEFVQWLLNT [[K^17,K^18, E^21, L^27] Glucagon] | – | 0.003 nM |
| HSQGTFTSDYSKYLDSKKAQEFVK([AEEA-AEEA-γGlu-C18 diacid])WLLDT | – | 0.051 nM |
| HSQGTFTSDYSKYLDSKKAQEFVQWLLNK([AEEA-AEEA-γGlu-C18 diacid]) | – | 0.053 nM |
